Test results reported in US10053696B2, “MiRNA-489 in treatment of breast cancer” (University of South Carolina, priority 2016, dated 2018).

B1: miR-489: microRNA-489 (SEQ ID NO: 2); overexpressed in cells, e.g. from miR-489 expressing vector in the luciferase assay (nucleic acid, listed as Homo sapiens)
chain: GUGGCAGCUUGGUGGUCGUAUGUGUGACGCCAUUUACUUGAACCUUUAGGAGUGACAUCACAUAUACGGCAGCUAAACUGCUAC

Assays:
[1] = tested on: HER2, AKT and MAPK phosphorylation in MCF7 vect and MCF7 HER2 cells; assay: Western blot of HER2 signaling after lapatinib treatment; assay type: cell-based; conditions: 2 μM lapatinib, 48 h, Western blot (FIG. 3)
Experimental: (§1) Quantitative real-time RT-PCR analysis, Immunohistochemistry staining (IHC), Western Blot analysis, Fluorescence-Activated Cell Sorting (FACS) assay, Luciferase assay and Xenograft experiments were performed using standard protocol.
(§2) To identify specific miRNAs that may be involved in promotion of breast cancer progression, expression profiles of several (˜200) miRNA were screened and compared for HER2 over-expressing and control MCF7 cells using quantitative RT-PCR (qRT-PCR) analysis.

[2] = tested on: miR-489, miR-125b and miR-99a expression in MCF7 HER2 cells; assay: qRT-PCR of HER2-regulated miRNAs after lapatinib treatment; assay type: cell-based; conditions: lapatinib treated MCF7 HER2 cells, qRT-PCR (FIG. 4)
Experimental: All data are representative of three independent experiments.
as §1, §2

3′UTR of HER2 = assay: Dual luciferase assay with HER2 3′UTR reporter constructs; assay type: cell-based, human; conditions: MCF7 HER2 cells, co-transfected 48 h, normalized with renilla (FIG. 16)
Experimental: FIG. 16 presents a schematic representation of the HER2 mRNA (wild type (wt) and mutant (mut)) with putative miR-489 binding site in the 3′ UTR, where the seed region is highlighted. MCF7 HER2 cells were co-transfected with either of miR-489 expressing vector or empty vector and renilla expressing vector for 48 h. Firefly luciferase was measured for each condition and normalized with renilla luciferase. Normalized luciferase activity was compared with WT-3′UTR and Mutant 3′ UTR of HER2 (graph).
A 650 bp long 3′ UTR of human HER2 was amplified from genomic DNA and cloned into the pGL3-promoter vector at the same Xba I and BamH I sites. For the mutation analysis putative miR-489 target site within 3′UTR of HER2 was mutated by Phusion site directed mutagenesis kit (Thermofisher Cat# F-541). All sequences were verified by direct sequencing of the plasmids.
as §1
To examine the similar effect of mimic-489 treatment on the expression of HER2, other breast cancer cell lines, AU-565, BT-474, HCC-1954 and ZR-75-1 cells were treated with mimic-489 for 72 hours to isolate total protein and RNA. […]

SHP2 = SHP2 expression in breast cancer cell lines after miR-489 overexpression; assay type: cell-based; conditions: mRNA and protein levels

Molecule	HER2, AKT and MAPK phosphorylation [1]	expression of miR-489, miR-125b and miR-99a after inhibition of HER2 phosphorylation [2]	luciferase activity of mutant HER2 3′UTR (3′UTR of HER2)	luciferase activity of wt HER2 3′UTR (3′UTR of HER2)	SHP2 expression (SHP2)
CS(=O)(=O)CCNCc1ccc(-c2ccc3ncnc(Nc4ccc(OCc5cccc(F)c5)c(Cl)c4)c3c2)o1 [lapatinib]	almost complete blockade	at least partially restored the expression profile			
B1			not the mutant HER2 3′UTR is significantly reduced	significantly reduced	reduced SHP2 expression
